Laboratory results reported in patent US20260056186A1 (JIANGSU HENGRUI PHARMACEUTICALS, published 2026).
Read-outs that look alike come from different tables or passages of the source. Each block holds one binder with its values, some of them ahead of it.

Legend:
[1] = target: T1, BAFF (PeproTech, Cat: 310-13) (UniProt Q9Y275 134-285); assay: ELISA, BAFF coated at 1 ug/mL, anti-human Fc-HRP, OD450
Procedure: (§1) The capabilities of TACI-BCMA fusion proteins (B575701, B575702, B575703, and B575704) to bind to BAFF and APRIL were assessed by ELISA as follows: BAFF (PeproTech, Cat: 310-13) or ARPIL (Acro Biosystems, Cat: APL-H52D1) was diluted to 1 μg/mL with PBS, and a 96-well plate (Costar, Cat: 3590) was coated with the dilution overnight at 4° C. The plate was washed with PBST and blocked with Blocking Buffer (PBST containing 1% BSA) at 37° C. for 1 h. The plate was tapped. The test antibodies were diluted with Blocking Buffer. Incubation was performed at 37° C. for 1.5 h. The plate was washed with PBST. An HRP-mouse anti-human Fc antibody (GenScript, Cat: A01854-200) was diluted with Blocking Buffer. Incubation was performed at 37° C. for 40 min. The plate was washed with PBST. 100 μL of TMB substrate solution (Biopanda, Cat: TMB-S-003) was added, and color development was performed at 37° C. for 3 min. 100 μL of ELISA stop solution (Solarbio, Cat: C1058) was added. OD450 was measured.
(§2) The capability of B575702 to bind to BAFF was consistent with that of B575704, and their EC₅₀ values decreased to ¼ of that of telitacicept. The capability of B575701 to bind to BAFF was consistent with that of B575703, and their EC₅₀ values decreased to ½ of that of telitacicept.

[2] = target: T1, BAFF (PeproTech, Cat: 310-13); assay: ELISA, BAFF coated; reference telitacicept
Procedure: as §1, §2

[3] = target: T2, APRIL (Acro Biosystems, Cat: APL-H52D1) (UniProt O75888 115-250, limits assumed); assay: ELISA, APRIL coated at 1 ug/mL, anti-human Fc-HRP, OD450
T2 construct: also called ARPIL
T2 sequence (looked up): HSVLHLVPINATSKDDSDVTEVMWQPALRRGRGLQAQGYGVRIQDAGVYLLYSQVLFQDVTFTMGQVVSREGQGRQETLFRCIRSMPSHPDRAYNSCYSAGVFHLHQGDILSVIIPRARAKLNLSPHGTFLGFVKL
Procedure: as §1
The capabilities of the 4 fusion proteins to bind to APRIL were all stronger than that of telitacicept, and their EC₅₀ values decreased to ¼ to ⅓ of that of telitacicept.

[4] = target: T3, BAFF (Sino biological, 10056-HNCH) (UniProt Q9Y275 134-285, biotinylated in the blocking ELISA (site not stated)); assay: ELISA, BAFF coated at 1 ug/mL, anti-human IgG-HRP
T3 construct: also called BLyS
Procedure: (§3) In addition, the BAFF binding activity of the constructed TACI-Fc fusion proteins was assessed, and the TACI-Fc fusion proteins' functional activity of blocking the binding of BAFF to BAFF-R was assessed (see Example 1 for the experimental method).
(§4) The BAFF binding activity of the TACI-Fc fusion proteins was assessed as follows: BAFF (Sino biological, 10056-HNCH) protein was diluted with a pH 7.4 PBS (BasalMedia, B320) buffer to 1 μg/mL, and the resulting dilution was added to a 96-well microplate (Corning, 3590) at 100 μL/well. The plate was incubated overnight at 4° C. After the liquid was discarded, 5% skim milk (BD, 232100), diluted with PBS, was added at 300 μL/well for blocking, and the plate was incubated at 37° C. for 2 h. After the blocking, the blocking solution was discarded, and the plate was washed 3 times with a PBST buffer (pH 7.4 PBS containing 0.10% tween-20). Serially diluted test antibody or fusion protein solutions were added at 100 μL/well, and the plate was incubated at 37° C. for 1 h. […] The plate was incubated at 37° C. for 1 h. After the plate was washed 3 times with PBST, the chromogenic substrate TMB (KPL, 5120-0077) was added at 100 μL/well. The plate was incubated at room temperature for 10-15 min, and 1 M H₂SO₄ was added at 50 μL/well to stop the reaction. The absorbance at 450 nm was measured using a microplate reader. Curves for the binding of the antibodies to the antigen were fitted using software, and EC₅₀ values were calculated.

[5] = target: T3, BAFF (Sino biological, 10056-HNCH); assay: competition ELISA: fusion protein pre-mixed with biotinylated BAFF, added to coated BAFF-R
Procedure: (§5) The above TACI-Fc fusion proteins' function of blocking the binding of BAFF to BAFF-R was further assessed as follows: The receptor protein was diluted with a pH 7.4 PBS (BasalMedia, B320) buffer to 2 μg/mL, and the resulting dilution was added to a 96-well microplate (Corning, 3590) at 100 μL/well. The plate was incubated overnight at 4° C. After the liquid was discarded, 1% Casein blocking solution (Thermo, 37528) was added at 200 μL/well for blocking, and the plate was incubated at 37° C. for 2 h. After the blocking, the blocking solution was discarded, and the plate was washed 3 times with a PBST buffer (pH 7.4 PBS containing 0.1% tween-20) and set aside for later use. A biotinylated ligand protein at a fixed concentration was mixed with a serially diluted antibody or fusion protein, and the mixture was pre-incubated at 37° C. for 30 min and then added to the blocked microplate. The plate was incubated at 37° C. for 1.5 h. After the incubation, the plate was washed 3 times with PBST, and streptavidin-HRP (Invitrogen, 434323, diluted in a 1:4000 ratio) was added at 100 μL/well. The plate was incubated at 37° C. for 1 h. The supernatant was removed. After the plate was washed 3 times with PBST, the chromogenic substrate TMB (KPL, 5120-0077) was added at 100 μL/well. The plate was incubated at room temperature for 10-15 min, and 1 M H₂SO₄ was added at 50 μL/well to stop the reaction. The absorbance at 450 nm was measured using a microplate reader. Curves for the inhibition of the binding of the ligand to the receptor were fitted using software, and IC₅₀ values were calculated. The sources of the ligand and the receptor protein used are as follows: BAFF (Sino biological, 10056-HNCH) and BAFF-R (Sino biological, 16079-H02H).
as §3

[6] = target: T3, BAFF (Sino biological, 10056-HNCH); assay: ELISA, BAFF coated at 1 ug/mL, anti-human IgG-HRP; remark: listed apart in the source
Procedure: as §4
The BAFF binding activity of the constructed TACI-Fc fusion proteins was assessed (see Example 2 for the experimental method), and the results are shown in Table 3: […]

[7] = target: T3, BAFF (Sino biological, 10056-HNCH); assay: competition ELISA: fusion protein pre-mixed with biotinylated BAFF, added to coated BAFF-R; remark: listed apart in the source
Procedure: as §5, with “After the plate was washed 3 times with PBST, the chromogenic substrate TMB (KPL, 5120-0077) was added at 100 μL/well. The plate was incubated at room temperature for 10-15 min, and 1 M H₂SO₄ was added at 50 μL/well to stop the reaction.” left out, “The sources of the ligand and the receptor protein used are as follows: BAFF (Sino biological, 10056-HNCH) and BAFF-R (Sino biological, 16079-H02H).” left out

[8] = target: T1, BAFF (PeproTech, Cat: 310-13); assay: ELISA, plate coated with BAFF 1 ug/mL, HRP anti-human Fc, OD450
Procedure: as §1, with “BAFF” for “The capabilities of TACI-BCMA fusion proteins (B575701, B575702, B575703, and B575704) to bind to BAFF and APRIL were assessed by ELISA as follows: BAFF”, “310-13)” for “310-13) or ARPIL (Acro Biosystems, Cat: APL-H52D1)”, “plate” for “plate (Costar, Cat: 3590)”

B2: TACI-12-Fc (Fc fusion)
chain: SLSCRKEQGKFYDHLLRDCISCASICGQHPKQCAYFCEDKTHTCPPCPAPEAEGAPSVFLFPPKPKDTLMISRTPEVTCVVVDVSHEDPEVKFNWYVDGVEVHNAKTKPREEQYNSTYRVVSVLTVLHQDWLNGKEYKCKVSNKALPSSIEKTISKAKGQPREPQVYTLPPSRDELTKNQVSLTCLVKGFYPSDIAVEWESNGQPENNYKTTPPVLDSDGSFFLYSKLTVDKSRWQQGNVFSCSVMHEALHNHYTQKSLSLSPGK
notes: TACI-9 truncated C-terminally by 3 amino acids, fused directly to Fc
EC50 [4]: 0.894 nM
IC50 [5]: 3.86 nM

B4: TACI-9-Fc (Fc fusion)
chain: SLSCRKEQGKFYDHLLRDCISCASICGQHPKQCAYFCENKLDKTHTCPPCPAPEAEGAPSVFLFPPKPKDTLMISRTPEVTCVVVDVSHEDPEVKFNWYVDGVEVHNAKTKPREEQYNSTYRVVSVLTVLHQDWLNGKEYKCKVSNKALPSSIEKTISKAKGQPREPQVYTLPPSRDELTKNQVSLTCLVKGFYPSDIAVEWESNGQPENNYKTTPPVLDSDGSFFLYSKLTVDKSRWQQGNVFSCSVMHEALHNHYTQKSLSLSPGK
notes: C-terminus of TACI-9 fused directly to the N-terminus of human IgG1 Fc; two identical polypeptide chains; expressed in 293E
EC50 [6]: 0.418 nM
EC50 [4]: 0.49 nM
IC50 [5]: 2.09 nM
IC50 [7]: 5.02 nM

B5: TACI-10-Fc (Fc fusion)
chain: SLSCRKEQGKFYDHLLRDCISCASICGQHPKQCAYFCENKDKTHTCPPCPAPEAEGAPSVFLFPPKPKDTLMISRTPEVTCVVVDVSHEDPEVKFNWYVDGVEVHNAKTKPREEQYNSTYRVVSVLTVLHQDWLNGKEYKCKVSNKALPSSIEKTISKAKGQPREPQVYTLPPSRDELTKNQVSLTCLVKGFYPSDIAVEWESNGQPENNYKTTPPVLDSDGSFFLYSKLTVDKSRWQQGNVFSCSVMHEALHNHYTQKSLSLSPGK
notes: TACI-9 truncated C-terminally by 1 amino acid, fused directly to Fc
EC50 [4]: 0.561 nM
IC50 [5]: 2.7 nM

B6: Atacicept (Fc fusion)
chain: AMRSCPEEQYWDPLLGTCMSCKTICNHQSQRTCAAFCRSLSCRKEQGKFYDHLLRDCISCASICGQHPKQCAYFCENKLRSEPKSSDKTHTCPPCPAPEAEGAPSVFLFPPKPKDTLMISRTPEVTCVVVDVSHEDPEVKFNWYVDGVEVHNAKTKPREEQYNSTYRVVSVLTVLHQDWLNGKEYKCKVSNKALPSSIEKTISKAKGQPREPQVYTLPPSRDELTKNQVSLTCLVKGFYPSDIAVEWESNGQPENNYKTTPPVLDSDGSFFLYSKLTVDKSRWQQGNVFSCSVMHEALHNHYTQKSLSLSPGK
EC50 (read off the curve) [8]: ~0.3 nM

B7: TACI-11-Fc (Fc fusion)
chain: SLSCRKEQGKFYDHLLRDCISCASICGQHPKQCAYFCENDKTHTCPPCPAPEAEGAPSVFLFPPKPKDTLMISRTPEVTCVVVDVSHEDPEVKFNWYVDGVEVHNAKTKPREEQYNSTYRVVSVLTVLHQDWLNGKEYKCKVSNKALPSSIEKTISKAKGQPREPQVYTLPPSRDELTKNQVSLTCLVKGFYPSDIAVEWESNGQPENNYKTTPPVLDSDGSFFLYSKLTVDKSRWQQGNVFSCSVMHEALHNHYTQKSLSLSPGK
EC50 [4]: 0.584 nM
IC50 [5]: 2.62 nM

More lines, now with the values ahead:

EC50 [1]: 0.187 nM
Emax [1]: 2.29 nM (as printed)
EC50 relative to telitacicept [2]: 0.25 fold
EC50 [3]: 0.189 nM
Emax [3]: 2.68
B1: B575704 (Fc fusion)
chain: MLQMAGQCSQNEYFDSLLHACIPCQLRCSSNTPPLTCQRYCNASVTNSVKGTNASRVDQEERFPQGLWTGVAMRSCPEEQYWDPLLGTCMSCKTICNHQSQRTCAAFCRSLSCRKEQGKFYDHLLRDCISCASICGQHPKQCAYFCENKLRSPVNLPPELDKTHTCPPCPAPEAEGAPSVFLFPPKPKDTLMISRTPEVTCVVVDVSHEDPEVKFNWYVDGVEVHNAKTKPREEQYNSTYRVVSVLTVLHQDWLNGKEYKCKVSNKALPSSIEKTISKAKGQPREPQVYTLPPSRDELTKNQVSLTCLVKGFYPSDIAVEWESNGQPENNYKTTPPVLDSDGSFFLYSKLTVDKSRWQQGNVFSCSVMHEALHNHYTQKSLSLSPGK
notes: TACI-BCMA fusion protein; also called BCMA-ECD-TACI-T2-Fc

EC50 [1]: 0.324 nM
Emax [1]: 2.31 nM (as printed)
EC50 relative to telitacicept [2]: 0.5 fold
EC50 [3]: 0.205 nM
Emax [3]: 2.69
B3: B575701 (Fc fusion)
chain: LSCRKEQGKFYDHLLRDCISCASICGQHPKQCAYFCENKLRSPGMLQMAGQCSQNEYFDSLLHACIPCQLRCSSNTPPLTCQRYCNASVTNSVKGTNADKTHTCPPCPAPEAEGAPSVFLFPPKPKDTLMISRTPEVTCVVVDVSHEDPEVKFNWYVDGVEVHNAKTKPREEQYNSTYRVVSVLTVLHQDWLNGKEYKCKVSNKALPSSIEKTISKAKGQPREPQVYTLPPSRDELTKNQVSLTCLVKGFYPSDIAVEWESNGQPENNYKTTPPVLDSDGSFFLYSKLTVDKSRWQQGNVFSCSVMHEALHNHYTQKSLSLSPGK
notes: TACI-BCMA fusion protein; also called TACI-d2-BCMA-ECD-Fc
